Source: patent US9217013B2, “Treatment of amyloidoses using myelin basic protein and fragments thereof” (The Research Foundation for the State University of New York, priority 2008, dated 2015)
Entries after “also recorded” stand apart in the source; their conditions may differ.

Experiments:
Aβ40DI [1] = biological target: T1, Aβ40DI (Homo sapiens, UniProt P05067, D694N/E693Q); test: Thioflavin T fluorescence assay of Aβ40DI fibril formation; assay type: biochemical; settings: 12.5 μM Aβ40DI, 1.56 μM protein, PBS, 37° C.
Experimental: FIG. 16 Thioflavin T analysis of inhibition of CAA mutant Aβ fibril formation by MBP. Aβ40DI at a concentration of 12.5 μM in PBS in the absence (□) or presence of 1.56 μM MBP(□) or bovine a-lactalbumin (Lalb; □) as a control. At specific time points, aliquots were collected from each sample and analyzed by thioflavin T binding and fluorescence to determine fibrillar assembly. Data represent the means±S.D. of triplicate samples. A.U., arbitrary units.
The Aβ B binding properties of the exemplary fragments of MBP described herein were determined in a thioflavin T fluorescence assay as follows: Lyophilized Aβ peptides were first resuspended with Me2SO to 2.5 mM, diluted to 12.5 μM in PBS, and then incubated at 37° C. with rocking either alone or with 1.56 μM MBP or bovine α-lactalbumin. Control samples containing 0.5% Me2SO and 1.56 μM MBP or lactalbumin in PBS were also included. At each time point, 100 μl samples of each reaction were placed in a 96-well microplate in triplicate, and 5 μl of 100 µM thioflavin T was added. The plate was mixed and incubated at 22° C. in the dark for 10 min. Fluorescence was measured at 490 nm with an excitation wavelength of 446 nm in a SpectraMax spectrofluorometer (Molecular Devices, Sunnyvale, Calif.) using SoftMax Pro control software. It is apparent that the method enables persons of skill in the art to determine the binding properties of MBP, variants thereof, and fragments thereof for any Aβ-peptide, including mutants thereof.

Aβ40DI [2] = biological target: T1, Aβ40DI; test: Quantitative immunoblot analysis of Aβ40DI fibril assembly; assay type: biochemical; settings: 12.5 μM Aβ40DI, 1.56 μM MBP, up to 12 h
Experimental: Aβ40DI (12.5 μM) was incubated in the absence (A and D) or presence (C and F) of 1.56 […] purified MBP. Bovine a-lactalbumin (Lalb. 1.56 μM) was included as a negative control (B and E). Aliquots were removed at specific time points and analyzed by quantitative immunoblot analysis using anti-Aβ mAb 6E10. […] Data represent the means±S.D. of three separate experiments.
Briefly, samples were heated at 90° C. for 5 min in reducing SDS-PAGE loading buffer, loaded onto gels, and electrophoresed. Gels were transferred to Hybond ECL nitrocellulose membranes (Amersham Biosciences) at 50 V overnight at 4° C. Membranes were blocked in PBS containing 5% milk or bovine serum albumin (BSA; used with biotinylated primary antibodies) at room temperature for 1 h and washed 3×10 min with PBS and 0.05% Tween 20. Membranes were incubated with primary antibodies for 1 h and washed as described above. Next, the membranes were incubated with either horseradish peroxidase-conjugated sheep anti-mouse IgG or horseradish peroxidase-conjugated streptavidin (both from Amersham Biosciences) for 1 h and washed. Detection was accomplished using ECL Western blotting substrate (Pierce), and images were captured either on film or using a VersaDoc 3000 imaging system (Bio-Rad) and quantitated with the manufacturer's Quantity One software.

Aβ42WT = Aβ42WT (Homo sapiens, UniProt P05067); test: Co-immunoprecipitation of MBP with Aβ42WT; assay type: binding
Experimental: AP peptides were resuspended in Me2SO to 2.5 mM and used at 10.8 μM. MBP was used at 1.56 μM. Proteins were combined in 250 μl of incubation buffer (PBS, 0.05% Tween 20, and 1% BSA). Anti-MBP mAb 382 was added to each sample mixture and incubated for 1 h at 4° C. with rocking. After incubation, 20 μl of washed GammaBind protein G-Sepharose beads (Amersham Biosciences) were added to each mixture, followed by incubation for an additional 1 h at 4° C. with rocking. Beads were separated by centrifugation at 8000×g for 2 min. Supernatants were removed, and beads were washed with 1 ml of incubation buffer. Separation and washing were repeated three times. A final wash was performed in PBS and 0.05% Tween 20 to remove excess BSA. Centrifuged beads were combined with 25 μl of reducing SDS-PAGE loading buffer and heated as described above. 10 μl of each sample/loading buffer mixture was loaded onto 10-20% Tricine gels (Invitrogen) and electrophoresed at 125 V for 35 min. Immunoblotting was carried out as described above using either biotinylated anti-MBP mAb 384 or biotinylated anti-Aβ mAb 3D6 as primary antibody. Experiments were performed in triplicate.

B1: myelin basic protein (protein)
chain: ASQKRPSQRHGSKYLATASTMDHARHGFLPRHRDTGILDSIGRFFGGDRGAPKRGSGKDSHHPARTAHYGSLPQKSHGRTQDENPVVHFFKNIVTPRTPPPSQGKGRGLSLSRFSWGAEGQRPGFGYGGRASDYKSAHKGFKGVDAQGTLSKIFKLGGRDSRSGSPMARR
notes: myelin basic protein, major form about 18.5 Kd (170 residues); purified protein
inhibition of Aβ40DI fibril assembly (thioflavin T) (Aβ40DI [1]): completely inhibits; also recorded: inhibit | accumulation of high molecular mass species of Aβ40DI (Aβ40DI [2]): allows no high molecular mass species of Aβ40DI to accumulate | interaction in co-immunoprecipitation (Aβ42WT): interacts
